Experimental data reported in publication PMC3494860 (The Journal of Cell Biology, 2012).

Target: T1, GST-PATJ (Drosophila melanogaster, UniProt Q9NB04 1-871)
T1 sequence (looked up): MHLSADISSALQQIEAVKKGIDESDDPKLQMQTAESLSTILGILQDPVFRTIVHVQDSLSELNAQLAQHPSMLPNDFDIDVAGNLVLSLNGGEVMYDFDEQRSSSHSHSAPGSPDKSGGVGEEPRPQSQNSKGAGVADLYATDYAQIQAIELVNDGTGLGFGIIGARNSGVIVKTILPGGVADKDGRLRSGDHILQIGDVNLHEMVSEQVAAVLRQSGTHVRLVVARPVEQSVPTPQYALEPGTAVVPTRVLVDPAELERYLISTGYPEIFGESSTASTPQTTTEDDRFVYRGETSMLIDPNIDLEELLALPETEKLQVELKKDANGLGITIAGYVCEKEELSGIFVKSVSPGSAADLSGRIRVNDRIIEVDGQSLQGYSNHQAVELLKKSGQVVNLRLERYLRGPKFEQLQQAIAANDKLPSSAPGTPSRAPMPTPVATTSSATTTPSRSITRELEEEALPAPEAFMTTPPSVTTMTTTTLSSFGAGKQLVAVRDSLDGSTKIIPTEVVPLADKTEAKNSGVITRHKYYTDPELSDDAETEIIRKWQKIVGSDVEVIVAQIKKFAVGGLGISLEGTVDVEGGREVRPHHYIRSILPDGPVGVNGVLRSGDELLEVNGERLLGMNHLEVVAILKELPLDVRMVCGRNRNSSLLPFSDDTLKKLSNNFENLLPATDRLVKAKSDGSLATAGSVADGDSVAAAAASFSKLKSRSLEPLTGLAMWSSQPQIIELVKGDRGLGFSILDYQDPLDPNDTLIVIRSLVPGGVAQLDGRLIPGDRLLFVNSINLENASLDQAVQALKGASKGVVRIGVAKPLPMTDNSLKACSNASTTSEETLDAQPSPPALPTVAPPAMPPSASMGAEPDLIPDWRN
Assay: pull-down

binding result: binds
B1: MBP-Sqh (natural protein, Drosophila melanogaster, UniProt P40423 1-174, looked up)
chain: MSSRKTAGRRATTKKRAQRATSNVFAMFDQAQIAEFKEAFNMIDQNRDGFVEKEDLHDMLASLGKNPTDDYLDGMMNEAPGPINFTMFLTLFGERLQGTDPEDVIKNAFGCFDEENMGVLPEDRLRELLTTMGDRFTDEDVDEMYREAPIKNGLFDYLEFTRILKHGAKDKDEQ
